The values that follow come from the supplement of paper PMC7877785.

± gives the uncertainty stated by the source.

The nature of the series: self-splicing fitness, log relative to wild type (ln ratio); higher = more splicing; Tetrahymena group I intron in knt gene, E. coli kanamycin selection, DiMSum; sequences stand for … in CUCUCU…GGAGGGAAAAGUUAUCAGGCAUGCACCUGGUAGCUAGUCUUUAAACCAAUAGAUUGCAUCGGUUUAAAAGGCAAGACCGUCAAAUUGCGGGAAAGGGGUCAACAGCCGUUCAGUACCAAGUCUCAGGGGAAACUUUGAGAUGGCCUUGCAAAGGGUAUGGUAAUAAGCUGACGGACAUGGUCCUAACCACGCAGCCAAGUCCUAAGUCAACAGAUCUUCUGUUGAUAUGGAUGCAGUUCACAGACUAAAUGUCGGUCGGGGAAGAUGUAUUCUUCUCAUAAGAUAUAGUCGGACCUCUCCUUAAUGGGAGCUAGCGGAUGAAGUGAUGCAACACUGGAGCCGCUGGGAACUAAUUUGUAUGCGAAAGUAUAUUGAUUAGUUUUGGAGUACUCGUGGUCG
The essentials: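 A randomised library covering all eight P1ex-region intron nucleotides was built with the intron in the knt kanamycin-resistance gene on pET-22b(+) and held in E. coli BL21(DE3). Cells were grown overnight at 37°C or 30°C on LB agar, with or without 25 μg/mL kanamycin, plus 100 μg/mL carbenicillin, 50 μM IPTG and 0.2% rhamnose, and pooled colonies were amplicon-sequenced on an Illumina HiSeq 2500. DiMSum fitness is the error-weighted combination of wild-type-normalised replicate fold changes, kanamycin versus none.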

As for UACUAGCAAUAUUACGGAUC, the “self-splicing fitness (ln)” value was -2.66 ± 0.19 (30 °C) and -1.7 ± 0.24 (37 °C).

In the case of UACUAGCAAUAUUACGGAUG, the “self-splicing fitness (ln)” value (30 °C) was -0.926 ± 0.077 and the “self-splicing fitness (ln)” value (37 °C) is -0.112 ± 0.11.

Take UACUAGCAAUAUUACGGCCU: the “self-splicing fitness (ln)” value is -1.25 ± 0.095 (30 °C) and -0.333 ± 0.11 (37 °C).

For UACUAGCAAUAUUACGGCGC, the “self-splicing fitness (ln)” value was -1.6 ± 0.28 (30 °C) and -1.55 ± 0.31 (37 °C).

On to UACUAGCAAUAUUACGGGUA, for which the “self-splicing fitness (ln)” value is -2.08 ± 0.14 (30 °C) and -1.84 ± 0.13 (37 °C).

As to UACUAGCAAUAUUACGGUAU, the “self-splicing fitness (ln)” value reads like this: (30 °C) -2.78 ± 0.33; (37 °C) -2.63 ± 0.36.

With UACUAGCAAUAUUACGGUCC, the “self-splicing fitness (ln)” value was -1.59 ± 0.14 (30 °C) and -0.676 ± 0.16 (37 °C).

For UACUAGCAAUAUUACGUAUU, the “self-splicing fitness (ln)” value was -4.56 ± 0.29 (30 °C) and -2.24 ± 0.15 (37 °C).

Regarding UACUAGCAAUAUUACGUCCA, the “self-splicing fitness (ln)” value was -0.715 ± 0.1 (30 °C) and -0.49 ± 0.13 (37 °C).

Consider UACUAGCAAUAUUACGUGUA, for which the “self-splicing fitness (ln)” value runs as follows: (30 °C) -3.12 ± 0.28; (37 °C) -0.943 ± 0.14.

In the case of UACUAGCAAUAUUACGUUAU, the “self-splicing fitness (ln)” value was -3.58 ± 0.18 (30 °C) and -1.45 ± 0.14 (37 °C).

Consider UAGAAGCAAUAUUACGACCU, for which the “self-splicing fitness (ln)” value reads like this: (30 °C) 0.0379 ± 0.17; (37 °C) -1.35 ± 0.14.

As to UAGAAGCAAUAUUACGACGG, the “self-splicing fitness (ln)” value (30 °C) was -0.626 ± 0.095 and the “self-splicing fitness (ln)” value (37 °C) was found to be 0.0889 ± 0.14.

With UAGAAGCAAUAUUACGCCAA, the “self-splicing fitness (ln)” value (30 °C) is -1.44 ± 0.29 and the “self-splicing fitness (ln)” value (37 °C) was -1.39 ± 0.28.

For UAGAAGCAAUAUUACGCCGU, the “self-splicing fitness (ln)” value is -2.41 ± 0.23 (30 °C) and -2.68 ± 0.36 (37 °C).

UAGAAGCAAUAUUACGCGAC: the “self-splicing fitness (ln)” value runs as follows: (30 °C) -3.67 ± 0.32; (37 °C) -2.08 ± 0.33.

Regarding UAGAAGCAAUAUUACGCGAG, the “self-splicing fitness (ln)” value (30 °C) is -0.342 ± 0.12 and the “self-splicing fitness (ln)” value (37 °C) is -0.636 ± 0.12.

UAGAAGCAAUAUUACGCUAG: the “self-splicing fitness (ln)” value is -1.18 ± 0.13 (30 °C) and -0.412 ± 0.16 (37 °C).

As to UAGAAGCAAUAUUACGGAAU, the “self-splicing fitness (ln)” value by setting is: (30 °C) -2.11 ± 0.18; (37 °C) -2.38 ± 0.36.

In the case of UAGAAGCAAUAUUACGGACU, the “self-splicing fitness (ln)” value by setting is: (30 °C) -1.29 ± 0.13; (37 °C) 0.474 ± 0.11.

Turning to UAGAAGCAAUAUUACGGAGG, the “self-splicing fitness (ln)” value is -3.39 ± 0.3 (30 °C) and -0.889 ± 0.27 (37 °C).

Consider UAGAAGCAAUAUUACGGCUU, for which the “self-splicing fitness (ln)” value reads like this: (30 °C) -3.59 ± 0.48; (37 °C) -1.67 ± 0.23.

Turning to UAGAAGCAAUAUUACGGGCU, the “self-splicing fitness (ln)” value by setting is: (30 °C) -3.1 ± 0.23; (37 °C) -3.1 ± 0.26.

UAGAAGCAAUAUUACGUACG: the “self-splicing fitness (ln)” value reads like this: (30 °C) -0.237 ± 0.1; (37 °C) -0.721 ± 0.13.

Take UAGAAGCAAUAUUACGUAGG: the “self-splicing fitness (ln)” value is, setting by setting: (30 °C) -1.78 ± 0.093; (37 °C) -1.61 ± 0.16.

As for UAGAAGCAAUAUUACGUAGU, the “self-splicing fitness (ln)” value runs as follows: (30 °C) -3.71 ± 0.25; (37 °C) -2.01 ± 0.22.

Take UAGAAGCAAUAUUACGUAUU: the “self-splicing fitness (ln)” value (30 °C) is -2.3 ± 0.087 and the “self-splicing fitness (ln)” value (37 °C) is -2.22 ± 0.12.

As for UAGAAGCAAUAUUACGUGUU, the “self-splicing fitness (ln)” value by setting is: (30 °C) -3.84 ± 0.14; (37 °C) -2.42 ± 0.11.

As to UAGAAGCAAUAUUACGUUAG, the “self-splicing fitness (ln)” value is, setting by setting: (30 °C) -2.51 ± 0.1; (37 °C) -0.338 ± 0.093.

Consider UAGAAGCAAUAUUACGUUAU, for which the “self-splicing fitness (ln)” value is -3.81 ± 0.14 (30 °C) and -2.76 ± 0.12 (37 °C).

Turning to UAGAAGCAAUAUUACGUUCA, the “self-splicing fitness (ln)” value runs as follows: (30 °C) -0.483 ± 0.063; (37 °C) 0.196 ± 0.082.

With UAGCAGCAAUAUUACGACAU, the “self-splicing fitness (ln)” value was -1.604 ± 0.013 (30 °C) and -0.682 ± 0.033 (37 °C).

In the case of UAGCAGCAAUAUUACGACCA, the “self-splicing fitness (ln)” value (30 °C) is -0.457 ± 0.12 and the “self-splicing fitness (ln)” value (37 °C) turned out to be 0.838 ± 0.17.

Regarding UAGCAGCAAUAUUACGACUA, the “self-splicing fitness (ln)” value was determined as 0.282 ± 0.1 (30 °C) and 0.568 ± 0.13 (37 °C).

UAGCAGCAAUAUUACGAGAA: the “self-splicing fitness (ln)” value (30 °C) is -2.19 ± 0.23 and the “self-splicing fitness (ln)” value (37 °C) was -0.949 ± 0.18.

On to UAGCAGCAAUAUUACGAGGA, for which the “self-splicing fitness (ln)” value reads like this: (30 °C) -3.39 ± 0.17; (37 °C) -2.06 ± 0.13.

Turning to UAGCAGCAAUAUUACGAGGC, the “self-splicing fitness (ln)” value (37 °C) was -3.43 ± 0.31.
